Patent US20250034227A1

B1: scTCR R76P1E1S with matured CDRb1 RPVTM (TCR)
chain: EDVEQSSFLSVREGDSAVINCTYTDSSSTYFYWYKQEPGAGLQLLTYIFSNMDMKQDQRLTVLLNKKDKHLSLRIADTQTGDSAIYFCAVKDNARLMFGDGTQLVVKPGGGGSGGGGSGGGGSGGGGSGGGGSGAVISQKPSRDIVQRGNSVTIQCQVDRPVTMMFWYRQQPGQSLTLIATANQGSEATYESGFVIDKFPISRPNLTFSTLTVSNMSPEDSSIYLCSVLGAYGYTFGSGTRLTVV
B2: scTCR CL-21753 (TCR)
chain: EDVEQSSFLSVREGDSAVINCTYTDASSTYFYWYKQEPGAGLQLLTYIFSNMDMKQDQRLTVLLNKKDKHLSLRIADTQTGDSAIYFCAVKDNARLMFGDGTQLVVKPGGGGSGGGGSGGGGSGGGGSGGGGSAVISQKPSRDIVQRGNSVTIQCQVDRPVTMMFWYRQQPGQSLTLIATAYDEGSATYESGFVIDKFPISRPNLTFSTLTVSNMSPEDSSIYLCSVLGAYGYTFGSGTRLTVV

Assays:
[1] = molecular target: HLA-A*02 tetramers with the 9 similar peptides (SimPeps, SEQ ID NOs: 59-67); test: yeast display, flow cytometry, SimPep tetramer mix, 25 nM each
[2] = molecular target: HLA-A*02 tetramers with the 9 similar peptides (SimPeps, SEQ ID NOs: 59-67); test: yeast display, 9 similar peptides, 10 nM HLA-A*02 tetramer

Binder | yeast cells stained positive [1] [%] | similar peptide binding, % positive cells [2] [%]
B1 | 0 | –
B2 | – | 0
